Measured values published in patent publication US20180280504A1, “GLYCAN-INTERACTING COMPOUNDS AND METHODS OF USE” (SIAMAB THERAPEUTICS, INC., priority 2014, published 2018).
Read-outs that look alike come from different tables or passages of the source.

Key:
MDA-MD-231 STn cells = experiment: Antibody internalization by fluorescence microscopy cell counts, STn+ cells; assay type: cell-based, human; details: for Net cell counts of cells showing positive internalization: 10 μg/ml antibody; for level of internalization (comparison of antibodies): microscopy
Method: 6-well culture dishes were prepared with collagen-coated coverslips in the center of 4 wells of each dish. Wells were seeded with either 10^5 cells/well of MDA-MD-231 cells or with 10^6 cells/well of MDA-MD-231 STn cells (expressing STn) and cultured for 24 hours.
10 μg/ml antibody solutions were prepared in cell culture media. A separate solution was prepared for each of LA22 antibody (EMD Millipore, Burlington, Mass.) as a positive control for cell surface binding, S3F antibody (internal reagent) as a positive control for STn binding, 8C11, 2D4, 7G9, 10A5 and GB26.16 (QED Bioscience, San Diego, Calif.) as a negative control. Media were removed from wells and 100 μl of each antibody solution was added to separate coverslips. Coverslips were covered with parafilm and incubated for 30 minutes at 4° C. to allow antibody binding. Antibody solutions were removed by washing and fresh media was added to each well. Cells were incubated at 37° C. for 15, 30, 60 or 240 min to allow for antibody internalization.
After incubation, cells were prepared for microscopy. Cells were washed with PBS and fixed with paraformaldehyde fixation buffer (PFA) containing 3% paraformaldehyde and 2% sucrose in PBS for 15 minutes at room temperature. Cells were rinsed again in PBS and treated with blocking buffer made up of PBS with 1% bovine serum albumin (BSA) or with permeabilization buffer made up of blocking buffer with 0.1% TX-100. Cells were incubated in for 30 min at room temperature, rinsed in PBS and treated with secondary antibody (ALEXA FLUOR® 488-labeled goat-anti-mouse IgG) for 2 hours at room temperature. Cells were rinsed again in PBS and treated with DAPI nuclear stain for 5 min at room temperature in the dark. Cells were rinsed again in PBS and mounted for fluorescence microscopy.

MDA-MB-231-STn+ cells = experiment: Cell viability assay with secondary antibody-drug conjugate (2° ADC), STn+ cells; assay type: cell-based, human; details: for IC50: MDA-MB-231-STn+ cells
Method: Cell viability assays are performed to screen anti-STn antibodies of the present invention in the presence and absence of secondary antibody-drug conjugates (2° ADCs). The purpose of the screen is to identify the ability of each anti-STn antibody to inhibit cell growth. Antibodies with potent cell growth inhibition are used to design direct antibody-drug conjugates (ADCs). Using such secondary antibody-drug conjugates (2° ADCs) in cell-based cytotoxic assays can quickly pre-screen many ADC candidates against tumor cells. Based on the assay, a naked antibody candidate is directly added to cells in the presence of a 2° ADC. Internalization of the mAb/2° ADC complex into cells that express a high density of the targeted antigen can achieve a dose-dependent drug release within the cells, causing a cytotoxic effect to kill the cells (e.g., tumor cells), while cells expressing a low density of the targeted antigen are not affected (e.g., normal cells).
To perform cell viability assays, cell lines described in the present application (MDA-MB-231 parental, MDA-MB-231-STn+, and OV-90) are prepared and cultured for the assays. The cell culture is optimized for cell density by plating different densities of cells (e.g., 2,000, 4,000 and 7,500 per well) on a 96-well plate and observing the cell growth for 96 hours. The plating condition in which cells reach around 90% confluence at the end of the 96 hours is identified and the optimal cell number is then used in the final viability assay.
Duplicate or triplicate cell plates for each cell line are used for testing each antibody candidate.
For cell viability assays, data points are collected for each antibody candidate with duplicates for each data point. Each antibody candidate is diluted in serial concentrations from 0.3 pM to 20 nM.
Alternatively, data points are collected for each antibody candidate with triplicates for each data point. Each antibody candidate is diluted in serial concentrations from 1 pM to 20 nM.
Cell viabilities are measured by Cell-Titer Glo luminescence based assays.
Three anti-STn monoclonal antibodies (anti-STn antibodies S3F, 7G9 and 2D4) and an anti-EGFR monoclonal antibody LA22 were tested for internalization. Six plates of cell culture, two per cell line (MDA-MB-231 parental, MDA-MB-231-STn+, and OV-90), were used to assay the antibody candidates. Each plate can be used to assay the four antibody candidates simultaneously. A secondary anti-IgG antibody conjugated to MMAF (monomethyl auristatin phenylalanine), a non-permeable Aurastatin analog, was used as the 2° ADC. Cell viability was then measured using CellTitreGlo Luminescent Cell Viability Assay (Promega, Madison, Wis.).

[1] = with 2° ADC Fab αMFc-CL-MMAF, CellTitreGlo, read-out: IC50 (nM), secondary internalization assay

Molecule	Net cell counts of cells showing positive internalization (MDA-MD-231 STn cells; 15 min at 37° C.)	Net cell counts of cells showing positive internalization (MDA-MD-231 STn cells; 30 min at 37° C.)	Net cell counts of cells showing positive internalization (MDA-MD-231 STn cells; 60 min at 37° C.)	Net cell counts of cells showing positive internalization (MDA-MD-231 STn cells; 4 hr at 37° C.)	Net cell counts of cells showing positive internalization (MDA-MD-231 STn cells; 4 hr, no perm)	level of internalization (comparison of antibodies) (MDA-MD-231 STn cells)	IC50 (MDA-MB-231-STn+ cells; [1]) [nM]	activity in MDA-MB-231-STn+ cells (MDA-MB-231-STn+ cells; with 2° ADC Fab αMFc-CL-MMAF)	IC50 (MDA-MB-231-STn+ cells; unit inferred, b641, read-out: IC50 in the presence of Fab αMFc-CL-MMAF) [nM]
10A5: anti-STn mouse monoclonal, IgG2c κ, from mouse #4406; VH SEQ ID NO: 6, VL SEQ ID NO: 7 (antibody, V domains shown) VH: QVQLKESGPGLVAPSQSLSITCTVSGFSLTSYGVSWVRQPPGKGLEWLGVIWGDGSTNYHSSLISRLSISKDNSKSQVFLKLNSLQTDDTATYYCARAFVYWGQGTLVTVSA VL: QIVLTQSPAIMSASPGEKVTMTCSASSSVSYIHWYQQKSGTSPKRWIYDTSKLASGVPARFSGSGSGTSYSLTISSMEAEDAATYYCQQWSSNPPMLTFGAGTKLELK	267	346	75	93	97	–	–	–	–
8C11: anti-STn mouse monoclonal, IgG2b κ, from mouse #4407; VH SEQ ID NO: 8, VL SEQ ID NO: 9 (antibody, V domains shown) VH: QVQLKESGPGLVAPSQSLSITCTVSGFSLTSYGVSWVRQPPGKGLEWLGVIWGDGSTNYHSALISRLIISKDNSKSQVFLKLNSLQTDDTATYYCTKGFTYWGQGTLVTVSA VL: QIVLTQSPAIMSASPGEKVTMTCSASSSVSYMHWYQQKSGTSPKRWIFDTSKLASGVPARFSGSGSGTSYSLTISSMEAEDAATYYCQQWSSNLLTFGAGTKLELK	934	297	122	49	160	greatest levels of internalization	–	–	–
2D4: anti-STn mouse monoclonal, IgG2b κ, from mouse #4407; VH SEQ ID NO: 10, VL SEQ ID NO: 11 (antibody, V domains shown) VH: QVQLQESGPGLVAPSQSLSITCTVSGFSLISYGVNWVRQPPGKGLEWLGVIWGDGSTNYQSALISRLIISKDNSKSQVFLKLNSLQTDDTATYYCTKGFAYWGQGTLVTVSA VL: QIVLTQSPAIMSASPGEKVTMTCSASSSVSYMHWFQQKSGTSPKRWIYDTSKLASGVPARFSGSGSGTSYSLTISSMEAEDAATYYCQQWSSNLLTFGAGTKLELK	1340	413	533	325	536	greatest levels of internalization	0.056	demonstrate activity	–
7G9: anti-STn mouse monoclonal, IgG2b κ, from mouse #4407; VH SEQ ID NO: 12, VL SEQ ID NO: 9 (antibody, V domains shown) VH: QVQLKESGPGLVAPSQNLSITCTVSGFSLTSYGVNWVRQPPGKGLEWLGVIWGDGSTNYHSALISRLIISKENSKSQVFLKLNSLQTNDTATYYCTKGFVYWGQGTLVTVSA VL: QIVLTQSPAIMSASPGEKVTMTCSASSSVSYMHWYQQKSGTSPKRWIFDTSKLASGVPARFSGSGSGTSYSLTISSMEAEDAATYYCQQWSSNLLTFGAGTKLELK	458	154	126	61	145	–	0.181	demonstrate activity	–
S3F: 3F1 variable domains combined with IgG2a constant domains; heavy chain SEQ ID NO: 63, light chain SEQ ID NO: 64 (antibody) heavy: QVQLQQSDAELVKPGASVKISCKASGYTFTDHAIHWVKQKPEQGLDWIGYISPGNGDIKYNEKFKDKVTLTADKSSSTACMHLNSLTSEDSAVYFCKRSLLALDYWGQGTTLTVSSAKTTAPSVYPLAPVCGDTTGSSVTLGCLVKGYFPEPVTLTWNSGSLSSGVHTFPAVLQSDLYTLSSSVTVTSSTWPSQSITCNVAHPASSTKVDKKIEPRGPTIKPCPPCKCPAPNLLGGPSVFIFPPKIKDVLMISLSPIVTCVVVDVSEDDPDVQISWFVNNVEVHTAQTQTHREDYNSTLRVVSALPIQHQDWMSGKEFKCKVNNKDLPAPIERTISKPKGSVRAPQVYVLPPPEEEMTKKQVTLTCMVTDFMPEDIYVEWTNNGKTELNYKNTEPVLDSDGSYFMYSKLRVEKKNWVERNSYSCSVVHEGLHNHHTTKSFSRTPGK light: DIVMTQSHKFMSTSVGDRVSITCKASQDVGTNIAWYQQKPGRSPKVLIYSASTRHTGVPDRFTGSGSGTDFTLTISNVQSEDLTDYFCQQYSSFPLTFGVGTKLELKRADAAPTVSIFPPSSEQLTSGGASVVCFLNNFYPKDINVKWKIDGSERQNGVLNSWTDQDSKDSTYSMSSTLTLTKDEYERHNSYTCEATHKTSTSPIVKSFNRNEC	426	410	350	259	276	–	0.058	demonstrate activity	0.124
